± gives the standard deviation.
Experiment: protein stability index of a GFP-peptide fusion (GPS, HEK-293T) (PSI 1-6); higher = more stable
[1] = treatment: DMSO, c terminus: a fixed tail appended
[2] = treatment: MLN4924 1 uM, 8 h, c terminus: a fixed tail appended
[3] = treatment: DMSO, c terminus: native
[4] = treatment: MLN4924 1 uM, 8 h, c terminus: native
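Note: 24-mer peptide tiles fused after GFP, lentivirally expressed, FACS-sorted into six equal bins by GFP/DsRed ratio, decoded by Illumina sequencing, PSI is the read-weighted mean bin number.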

Sequence | protein stability index [1] | protein stability index [2] | protein stability index [3] | protein stability index [4]
VCRTEGTPHMLLDLSDLLQVDSLR [BRF1] | 2.31 ± 0.23 | 2.29 ± 0.3 |  | 
GNPSTNSRVTASSGITIPKPPKPP [SMARCE1] | 4.67 ± 0.32 | 4.7 ± 0.13 |  | 
SGISFPSVVDHPMPEERASKYENY [HESX1] | 4.25 ± 0.32 | 4.22 ± 0.3 |  | 
PGKINCLRNCKTYQARKPLWFYNT [RHOBTB3] | 2.59 ± 0.41 | 2.76 ± 0.47 |  | 
QEAPLQDDSCLNNDIPHSIPLEQG [FAN1] | 5.25 ± 0.34 | 5.27 ± 0.17 |  | 
TSGMGFHAPKIGSNGVEMAAKFPS [SDE2] | 3.53 ± 0.28 | 3.5 ± 0.27 |  | 
VTFRDVAVDFTQEEWGQLDPTQRI [ZNF8] | 3.8 ± 0.36 | 3.82 ± 0.33 |  | 
LDHLSLGEEPVPHQQVEEALSFTL [NEK8] | 4.1 ± 0.35 | 4 ± 0.29 |  | 
SSLFMDTEKSGKREFDVRQTPQVN [WEE1] | 4.58 ± 0.26 | 4.71 ± 0.27 |  | 
PPSALDQLSRLNITYPMLFKLTNK [UFD1] | 2.48 ± 0.27 | 2.96 ± 0.095 |  | 
SQFKILVSLLENNIYVHDLLTFQQ [VPS39] | 3.02 ± 0.29 | 3.21 ± 0.6 |  | 
SPINMEDQERIKVERKRLRNRLAA [JUNB] | 4.48 ± 0.55 | 4.65 ± 0.087 |  | 
SSVQSYPGSASLAQSRLEDPGADS [DLX1] | 5.23 ± 0.2 | 5.52 ± 0.24 |  | 
LVNMGISVVSYTLKDIHDDQDYLH [FLOT1] | 2.11 ± 0.24 | 2.22 ± 0.31 |  | 
THVLSKEVQHLREEKSKQFLDLME [LRRC45] | 3.66 ± 0.26 | 3.81 ± 0.26 |  | 
IETGENVTGMELEFKRLASSKAHT [PTPRD] | 4.35 ± 0.12 | 4.33 ± 0.29 |  | 
TYLSKVDPDGKKIKQIQQLFEEIL [FBXO33] | 2.25 ± 0.24 | 1.84 ± 0.26 |  | 
PVSGKAVFMEFGPPNQQMSPSPMS [DLX1] | 3.5 ± 0.26 | 3.55 ± 0.41 |  | 

Sequence | protein stability index [1] | protein stability index [2] | protein stability index [3] | protein stability index [4]
EIDEKVTDLVQFLLFKYQMKEPIT [MAGEA10] | 2.35 ± 0.5 | 1.75 ± 0.3 |  | 
TPQPTALTFAKSSWARQESLQERK [AUP1] | 4.43 ± 0.14 | 4.48 ± 0.19 |  | 
YRSPEPDPYLSYRWKRRRSYSREH [CLK3] | 3.55 ± 0.33 | 3.71 ± 0.12 |  | 
PRTNEWTYVAKMSEPHYGHAGTVY [KLHL13] | 2.44 ± 0.21 | 2.61 ± 0.24 |  | 
HSSDEDEDEDDEEDFEDDDEWED [WASL] |  |  | 3.19 ± 0.17 | 3.33 ± 0.47
EDAEAVEQLREALHEALLEYEAGR [ESRRA] | 4.03 ± 0.35 | 4.26 ± 0.18 |  | 
KVHYLFPDGKEMAEEYDEKTSELL [DPCD] | 4.32 ± 0.25 | 4.42 ± 0.12 |  | 
IRRPRLYLLQWLKSDKALMMLFND [PLK2] | 2.58 ± 0.48 | 2.75 ± 0.26 |  | 
LSLLGAVGLAAVNSMPVDNRNHNE [CHGB] | 3.35 ± 0.2 | 3.54 ± 0.5 |  | 
WEASSLGLVTAALHMVIVAAFTWA [KMT2E] | 3.44 ± 0.31 | 3.16 ± 0.74 |  | 
GGGGVAAVVVLDQGSRHWQKLREE [DUSP5] | 2.96 ± 0.26 | 2.65 ± 0.3 |  | 
SSNGNDNGNGKNGGLEHVPSSSSI [BNIP3L] | 5.2 ± 0.29 | 5.33 ± 0.17 |  | 
YRYCCKLNKKLKSYSLSRKKIVHY [CDC14A] | 2.27 ± 0.38 | 2.25 ± 0.53 |  | 
HYYKENDPSVRLKIASLLGLLSKT [INTS4] | 2.05 ± 0.31 | 2.18 ± 0.23 |  | 
DALDSEGRDSEGPAEGEGRLGRCM [KCNG1] | 5.34 ± 0.28 | 5.53 ± 0.21 |  | 
TINNFSFCREEMGEVLKSSTFSSG [SPOPL] | 2.33 ± 0.21 | 2.53 ± 0.28 |  | 
MALSNHYRSEDLLDVDTAAGGFQQ [FBXO3] | 4.03 ± 0.18 | 4.04 ± 0.13 |  | 
HRPSTLQAASTPQAEEDWTCTIL [OAS1] |  |  | 4.18 ± 0.17 | 4.45 ± 0.14
